Experimental data reported in patent US20070178093A1.

Legend:
[1] = biological target: human glucocorticoid-induced tumor necrosis factor family-related receptor (TEASR) (human) (UniProt Q9Y5U5); assay: cell-based or functional assay
[2] = biological target: fusion protein comprising the extracellular domain of hTEASR and the cytoplasmic region of Fas, expressed on Ba/F3 cells (human) (UniProt Q9Y5U5); assay: cell-based or functional assay

Question: Which results are given for “hTEASR-L-Ig fusion protein (from UniProt Q9UNG2 49-177) (Fc fusion)”?
Answer: proliferation of CD4+ T cells in the presence of CD32/CD58/CD80 feeder L cells [1]: 2.5 fold; proliferation of CD8+ T cells in the presence of CD32 feeder L cells [1]: 5.6 fold

Question: “human TEASR ligand (TEASR-L) (from UniProt Q9UNG2 1-177)” was tested. Which apoptotic cell death, 51Cr release from transfected Ba/F3 cells (in the presence of control IgG1) [2] did it give?
Answer: Its apoptotic cell death, 51Cr release from transfected Ba/F3 cells (in the presence of control IgG1) is 23 % release.
